The supplement of paper PMC7877785
± gives the uncertainty stated by the source.

Assay: self-splicing fitness, log relative to wild type (ln ratio); higher = more splicing; Tetrahymena group I intron in knt gene, E. coli kanamycin selection, DiMSum; sequences stand for … in CUCUCU…GGAGGGAAAAGUUAUCAGGCAUGCACCUGGUAGCUAGUCUUUAAACCAAUAGAUUGCAUCGGUUUAAAAGGCAAGACCGUCAAAUUGCGGGAAAGGGGUCAACAGCCGUUCAGUACCAAGUCUCAGGGGAAACUUUGAGAUGGCCUUGCAAAGGGUAUGGUAAUAAGCUGACGGACAUGGUCCUAACCACGCAGCCAAGUCCUAAGUCAACAGAUCUUCUGUUGAUAUGGAUGCAGUUCACAGACUAAAUGUCGGUCGGGGAAGAUGUAUUCUUCUCAUAAGAUAUAGUCGGACCUCUCCUUAAUGGGAGCUAGCGGAUGAAGUGAUGCAACACUGGAGCCGCUGGGAACUAAUUUGUAUGCGAAAGUAUAUUGAUUAGUUUUGGAGUACUCGUGGUCG
In short: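 Six replicate transformations of E. coli BL21(DE3) with a pET-22b(+) library were grown overnight at 37°C or 30°C. The library randomised all eight P1ex-region intron nucleotides, the intron lying in the knt kanamycin-resistance gene, and plates were LB agar with or without 25 μg/mL kanamycin plus 100 μg/mL carbenicillin, 50 μM IPTG and 0.2% rhamnose. Pooled colonies were amplicon-sequenced on an Illumina HiSeq 2500, and fitness is the DiMSum error-weighted combination of wild-type-normalised replicate fold changes, kanamycin versus none.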

| Sequence | self-splicing fitness (ln) (30 °C) | self-splicing fitness (ln) (37 °C) |
| --- | --- | --- |
| AAUAAGCAAUAUUACGUGGG | -3 ± 0.13 | -2.75 ± 0.17 |
| AAUCAGCAAUAUUACGAAAA | -1.45 ± 0.092 | -0.169 ± 0.1 |
| AAUCAGCAAUAUUACGAACA | -0.526 ± 0.12 | -0.161 ± 0.13 |
| AAUCAGCAAUAUUACGAACU | -0.125 ± 0.05 | 0.389 ± 0.077 |
| AAUCAGCAAUAUUACGACCG | -0.959 ± 0.098 | -0.795 ± 0.11 |
| AAUCAGCAAUAUUACGAUUA | -0.229 ± 0.088 | -0.426 ± 0.088 |
| AAUCAGCAAUAUUACGAUUU | -1.8 ± 0.076 | -0.714 ± 0.086 |
| AAUCAGCAAUAUUACGCAAA | -0.0279 ± 0.067 | -0.117 ± 0.078 |
| AAUCAGCAAUAUUACGCAGA | -1.04 ± 0.068 | -0.32 ± 0.07 |
| AAUCAGCAAUAUUACGCAUA | -0.272 ± 0.085 | -0.142 ± 0.13 |
| AAUCAGCAAUAUUACGCCAG | -0.398 ± 0.16 | -1.58 ± 0.17 |
| AAUCAGCAAUAUUACGCUAG | -0.729 ± 0.066 | 0.121 ± 0.09 |
| AAUCAGCAAUAUUACGGAAU | -0.646 ± 0.065 | -0.35 ± 0.075 |
| AAUCAGCAAUAUUACGUCCA | -0.876 ± 0.1 | -0.0432 ± 0.12 |
| AAUCAGCAAUAUUACGUGAA | -0.152 ± 0.065 | 0.257 ± 0.094 |
| AAUCAGCAAUAUUACGUUUC | -2.83 ± 0.14 | -1.2 ± 0.13 |
| AAUGAGCAAUAUUACGAAAG | – | -3.18 ± 0.4 |
| AAUGAGCAAUAUUACGAAUA | -3.37 ± 0.39 | -2 ± 0.32 |
| AAUGAGCAAUAUUACGACAG | -3.71 ± 0.29 | -1.85 ± 0.26 |
| AAUGAGCAAUAUUACGACAU | -1.33 ± 0.014 | -0.714 ± 0.033 |
| AAUGAGCAAUAUUACGACCG | -3.45 ± 0.36 | -1.24 ± 0.34 |
| AAUGAGCAAUAUUACGACGG | -3.86 ± 0.19 | -2.3 ± 0.21 |
| AAUGAGCAAUAUUACGAGAA | -2.17 ± 0.23 | -2.03 ± 0.32 |
| AAUGAGCAAUAUUACGAGCC | -1.79 ± 0.44 | – |
| AAUGAGCAAUAUUACGAGCU | -3.15 ± 0.24 | -3.57 ± 0.42 |

| Sequence | self-splicing fitness (ln) (30 °C) | self-splicing fitness (ln) (37 °C) |
| --- | --- | --- |
| AAUGAGCAAUAUUACGAGGU | -4.31 ± 0.29 | -2.49 ± 0.17 |
| AAUGAGCAAUAUUACGAUAA | -3.11 ± 0.17 | -2.51 ± 0.2 |
| AAUGAGCAAUAUUACGAUCA | – | -2.46 ± 0.31 |
| AAUGAGCAAUAUUACGCAAC | -2.46 ± 0.22 | -2.51 ± 0.44 |
| AAUGAGCAAUAUUACGCACC | – | -1.2 ± 0.48 |
| AAUGAGCAAUAUUACGCCGG | -3.52 ± 0.47 | -2.35 ± 0.36 |
| AAUGAGCAAUAUUACGCCGU | – | -2.55 ± 0.26 |
| AAUGAGCAAUAUUACGCGCG | -2.52 ± 0.18 | -1.9 ± 0.2 |
| AAUGAGCAAUAUUACGCUCU | -3.18 ± 0.19 | -3.53 ± 0.23 |
| AAUGAGCAAUAUUACGGACC | – | -1.08 ± 0.44 |
| AAUGAGCAAUAUUACGGCAG | -2.62 ± 0.24 | -1.87 ± 0.46 |
| AAUGAGCAAUAUUACGGCAU | -1.55 ± 0.12 | -0.695 ± 0.12 |
| AAUGAGCAAUAUUACGGCCC | -1.23 ± 0.47 | -1.48 ± 0.37 |
| AAUGAGCAAUAUUACGGGCU | -2.51 ± 0.18 | -2.21 ± 0.46 |
| AAUGAGCAAUAUUACGGUCA | -1.92 ± 0.28 | -1.45 ± 0.36 |
| AAUGAGCAAUAUUACGUAAU | -3.08 ± 0.17 | -1.33 ± 0.15 |
| AAUGAGCAAUAUUACGUACA | -2.3 ± 0.36 | -3.21 ± 0.33 |
| AAUGAGCAAUAUUACGUAGC | -2.91 ± 0.2 | -2.05 ± 0.36 |
| AAUGAGCAAUAUUACGUAUU | -3.41 ± 0.14 | -2.48 ± 0.16 |
| AAUGAGCAAUAUUACGUCGC | -3.95 ± 0.29 | -2.79 ± 0.32 |
| AAUGAGCAAUAUUACGUCGG | -3.31 ± 0.22 | -2.44 ± 0.4 |
| AAUGAGCAAUAUUACGUGUC | -3.39 ± 0.25 | -3.65 ± 0.39 |
| AAUUAGCAAUAUUACGAAAC | – | -0.761 ± 0.4 |
| AAUUAGCAAUAUUACGAACC | -0.0097 ± 0.32 | -0.827 ± 0.36 |
| AAUUAGCAAUAUUACGAAGU | -2.79 ± 0.21 | -1.05 ± 0.17 |

| Sequence | self-splicing fitness (ln) (30 °C) | self-splicing fitness (ln) (37 °C) |
| --- | --- | --- |
| AAUUAGCAAUAUUACGAAUA | -1.67 ± 0.41 | 0.49 ± 0.3 |
| AAUUAGCAAUAUUACGACUU | 0.0659 ± 0.11 | 0.0237 ± 0.14 |
| AAUUAGCAAUAUUACGAGAG | -3.43 ± 0.23 | -1.09 ± 0.18 |
| AAUUAGCAAUAUUACGAGGC | -2.7 ± 0.32 | -2.6 ± 0.44 |
| AAUUAGCAAUAUUACGAGUA | -1.86 ± 0.24 | -1.16 ± 0.18 |
| AAUUAGCAAUAUUACGAUCG | -0.473 ± 0.13 | 0.0147 ± 0.16 |
| AAUUAGCAAUAUUACGAUGC | -1.25 ± 0.15 | -0.872 ± 0.18 |
| AAUUAGCAAUAUUACGAUUC | -2.85 ± 0.24 | -1.13 ± 0.34 |
| AAUUAGCAAUAUUACGCAAG | -0.991 ± 0.13 | -1.4 ± 0.19 |
| AAUUAGCAAUAUUACGCACG | -2.18 ± 0.2 | -0.641 ± 0.17 |
| AAUUAGCAAUAUUACGCCUG | -0.979 ± 0.14 | -0.733 ± 0.21 |
| AAUUAGCAAUAUUACGCCUU | -0.243 ± 0.11 | -0.0919 ± 0.12 |
| AAUUAGCAAUAUUACGCGAA | -1.34 ± 0.15 | -1.89 ± 0.25 |
| AAUUAGCAAUAUUACGCGAU | -3.62 ± 0.32 | -2.31 ± 0.23 |
| AAUUAGCAAUAUUACGCGGU | -3.63 ± 0.21 | -1.55 ± 0.21 |
| AAUUAGCAAUAUUACGCUCA | -0.656 ± 0.12 | -0.204 ± 0.16 |
| AAUUAGCAAUAUUACGGAGA | -3.3 ± 0.45 | -1.98 ± 0.36 |
| AAUUAGCAAUAUUACGGCAG | -0.691 ± 0.11 | -0.322 ± 0.1 |
| AAUUAGCAAUAUUACGGCGG | -1.81 ± 0.11 | -0.193 ± 0.13 |
| AAUUAGCAAUAUUACGGCUG | -0.324 ± 0.082 | 0.339 ± 0.12 |
| AAUUAGCAAUAUUACGGGGA | -2.98 ± 0.27 | -2.07 ± 0.26 |
| AAUUAGCAAUAUUACGGUCC | -0.652 ± 0.12 | 0.122 ± 0.15 |
| AAUUAGCAAUAUUACGUAGG | -2.69 ± 0.12 | -1.96 ± 0.18 |
| AAUUAGCAAUAUUACGUAUA | -1.83 ± 0.28 | -1.32 ± 0.38 |
| AAUUAGCAAUAUUACGUGGA | -3.12 ± 0.2 | -2.27 ± 0.17 |

| Sequence | self-splicing fitness (ln) (30 °C) | self-splicing fitness (ln) (37 °C) |
| --- | --- | --- |
| AAUUAGCAAUAUUACGUGGC | -3.39 ± 0.2 | -1.96 ± 0.24 |
| AAUUAGCAAUAUUACGUGUG | -2.11 ± 0.11 | -0.784 ± 0.096 |
| ACAAAGCAAUAUUACGACGA | -0.436 ± 0.063 | -0.207 ± 0.062 |
| ACAAAGCAAUAUUACGAUAA | -1.38 ± 0.086 | -1 ± 0.1 |
| ACAAAGCAAUAUUACGAUGG | -1.44 ± 0.08 | -0.402 ± 0.1 |
| ACAAAGCAAUAUUACGCAGG | -1.47 ± 0.064 | -1.21 ± 0.08 |
| ACAAAGCAAUAUUACGCCAG | -1.94 ± 0.13 | -1.11 ± 0.16 |
| ACAAAGCAAUAUUACGCCGG | -0.52 ± 0.065 | -0.282 ± 0.083 |
| ACAAAGCAAUAUUACGCUUG | -1.62 ± 0.057 | -0.984 ± 0.079 |
| ACAAAGCAAUAUUACGGACA | -1.29 ± 0.13 | -0.782 ± 0.11 |
| ACAAAGCAAUAUUACGGACG | -0.851 ± 0.045 | -0.124 ± 0.065 |
| ACAAAGCAAUAUUACGGGUU | -2.54 ± 0.087 | -1.23 ± 0.09 |
| ACAAAGCAAUAUUACGGUAC | -3.33 ± 0.13 | -2.3 ± 0.15 |
| ACAAAGCAAUAUUACGGUAU | -3.56 ± 0.13 | -1.35 ± 0.099 |
| ACAAAGCAAUAUUACGGUCG | -1.24 ± 0.055 | -0.228 ± 0.08 |
| ACAAAGCAAUAUUACGGUGU | -3.29 ± 0.14 | -2.81 ± 0.15 |
| ACAAAGCAAUAUUACGUCCU | -0.488 ± 0.07 | -0.399 ± 0.08 |
| ACACAGCAAUAUUACGAAAA | -3.2 ± 0.19 | -3 ± 0.19 |
| ACACAGCAAUAUUACGAAAC | -3.02 ± 0.23 | -1.82 ± 0.22 |
| ACACAGCAAUAUUACGACUU | -0.131 ± 0.043 | 0.0165 ± 0.056 |
| ACACAGCAAUAUUACGAGAA | -3.53 ± 0.37 | -2.54 ± 0.24 |
| ACACAGCAAUAUUACGAUGA | -0.664 ± 0.048 | -0.444 ± 0.057 |
